Results: US20180057596A1 (AstraZeneca / MedImmune, published 2018)
Values joined by “and” are separate entries in the source; they are usually repeats but may differ in a detail not shown here. Equal values may be shown once. Read-outs that look alike come from different tables or passages of the source.

B3: human IL-4Rα HIS FLAG (in house HEK-EBNA derived) (receptor)
chain: MKVLQEPTCVSDYMSISTCEWKMNGPTNCSTELRLLYQLVFLLSEAHTCIPENNGGAGCVCHLLMDDVVSADNYTLDLWAGQQLLWKGSFKPSEHVKPRAPGNLTVHTNVSDTLLLTWSNPYPPDNYLYNHLTYAVNIWSENDPADFRIYNVTYLEPSLRIAASTLKSGISYRARVRAWAQCYNTTWSEWSPSTKWHNSYREPFNPAFLYKVVGAADYKDDDDKAAHHHHHHHHHH
modifications: biotinylated where used as the labelled partner in the DELFIA assay
notes: also called HuIL-4Rα; Human IL4-Rα/FLAG/HIS tag

Tests used:
[1] = target: T1, human IL-4Rα on TF-1 cells (human, UniProt P24394 26-825); test: cell-based or functional assay
T1 sequence (looked up): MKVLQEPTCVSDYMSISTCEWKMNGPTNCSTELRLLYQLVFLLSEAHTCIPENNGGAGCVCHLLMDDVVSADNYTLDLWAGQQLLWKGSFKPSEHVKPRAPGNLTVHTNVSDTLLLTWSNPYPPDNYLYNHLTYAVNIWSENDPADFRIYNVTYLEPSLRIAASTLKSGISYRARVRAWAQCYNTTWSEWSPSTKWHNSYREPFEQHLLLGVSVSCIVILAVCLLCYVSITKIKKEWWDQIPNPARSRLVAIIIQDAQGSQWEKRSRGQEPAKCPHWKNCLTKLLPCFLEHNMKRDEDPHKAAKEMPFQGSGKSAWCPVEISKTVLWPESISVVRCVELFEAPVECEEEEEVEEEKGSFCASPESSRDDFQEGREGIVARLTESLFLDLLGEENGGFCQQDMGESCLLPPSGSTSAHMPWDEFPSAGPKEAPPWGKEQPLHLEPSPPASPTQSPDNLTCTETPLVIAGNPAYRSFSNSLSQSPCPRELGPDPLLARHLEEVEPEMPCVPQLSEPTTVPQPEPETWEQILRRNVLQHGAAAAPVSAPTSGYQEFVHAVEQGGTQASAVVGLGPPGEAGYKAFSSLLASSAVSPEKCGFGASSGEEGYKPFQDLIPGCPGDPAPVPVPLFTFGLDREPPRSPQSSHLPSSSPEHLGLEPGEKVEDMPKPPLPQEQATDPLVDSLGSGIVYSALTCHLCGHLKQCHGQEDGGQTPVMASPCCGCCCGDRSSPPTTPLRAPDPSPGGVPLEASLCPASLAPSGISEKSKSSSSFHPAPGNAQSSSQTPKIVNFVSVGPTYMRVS

[2] = target: B3; test: SPR (BIAcore 2000), IgG captured on Protein G', receptor as analyte, 1:1 Langmuir
Method: (§1) In brief, Protein G′ (Sigma Aldrich, P4689) was covalently coupled to the surface of a CM5 sensor chip using standard amine coupling reagents according to manufacturer's instructions (BIAcore). This Protein G′ surface was used to capture a constant amount of purified anti-IL4R• antibodies or isotype control via the Fc domain. Human or cynomolgus IL-4R• HIS FLAG prepared in HBS-EP buffer (BIAcore AB), at a range of concentrations, between 100 nM and 0.2 nM, were passed over the sensor chip surface. […] The resulting sensorgrams were evaluated using BIA evaluation 4.1 software and fitted to 1:1 Langmuir binding model, to provide the relative binding data. The experiments were performed over the course of at least three separate days to calculate an average monovalent affinity.

[3] = target: T2, cynomolgus IL-4Rα HIS FLAG (cynomolgus); test: as above
T2 construct: also called Cyno IL4Rα HIS FLAG; not shown: HIS and FLAG tags and any vector-encoded linker of the cynomolgus HIS FLAG construct
T2 chain: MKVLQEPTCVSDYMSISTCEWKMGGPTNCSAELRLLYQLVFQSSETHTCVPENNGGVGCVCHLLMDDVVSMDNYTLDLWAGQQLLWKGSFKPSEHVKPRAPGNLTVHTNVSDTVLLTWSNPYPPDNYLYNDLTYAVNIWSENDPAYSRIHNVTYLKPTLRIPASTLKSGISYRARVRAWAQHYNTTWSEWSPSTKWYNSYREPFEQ
Method: as §1

[4] = target: B3; test: SPR (BIAcore 2000), value in parentheses under the mean, taken as a single determination
Method: as §1

[5] = target: T2, cynomolgus IL-4Rα HIS FLAG; test: as above
Method: as §1

[6] = target: B3; test: SPR (BIAcore 2000), value in parentheses under the mean, taken as a single determination; single determination, one of three separate days; the mean is 0.255 nM
Method: as §1

[7] = target: T1, human IL-4Rα on TF-1 cells; test: cell-based or functional assay; remark: listed apart in the source
[8] = target: T3, antibody tested in the epitope mapping of Example 5; test: HTRF competition, test protein against biotinylated human IL-4Rα/Fc for cryptate labelled antibody
T3 construct: also called an antibody of the invention
Method: (§2) Antibody was cryptate labelled with Eu³⁺ Cryptate labelling kit according to the manufacturer's instructions (CisBio International Cat No. 62EUSPEA) and IL-4R•/Fc (R&D systems Cat. No. 604-4R-050) was Biotin labelled with EZ Link NHS-Biotin according to the manufacturer's instructions (Perbio Cat No. 20217). […] 1% BSA, 0. 4M potassium fluoride in a total volume of 20 μl in a 384 well microtitre plate (Greiner). To the assay a dilution series (from 1000 nM to 0.017 nM) of test proteins was added and the assay incubated overnight at 4° C. FRET signal was detected using a PerkinElmer EnVision plate reader using a 320 nm excitation filter and 620 nm and 665 nm emission filters. Results were calculated from the 665/620 ratio as a percentage of specific binding (signal with no competitor antigen). Results were analysed with Prism (GraphPad Software) using the sigmoidal dose response model.
Antibody binding of chimeric molecules was tested in an HTRF (Homogeneous Time Resolved Fluorescence) competition assay. Molecules which bound antibody at the same paratope as human IL-4R• inhibited the binding interaction, leading to a reduction in signal. From inhibition curves IC₅₀ values for human IL-4R•, mouse IL-4R• and chimeric molecules were calculated (Table 5). […] Chimeras that gave similar IC₅₀ values to native human IL-4R• still contained the epitope.

[9] = target: T3, antibody tested in the epitope mapping …; test: as above; remark: listed apart in the source
Method: as §2

[10] = target: T3, antibody tested in the epitope mapping …; test: as above; remark: listed apart in the source
Method: as §2

B1: Antibody 37 IgG (antibody, V domains shown)
VH: QVQLVQSGAEVKKPGASVKVSCKASGYAFTSYYMHWARQAPGQGLEWMGIINPRGGSTSYAQKFQGRVAMTRDTSTSTVYMELSSLRPEDTAVYYCARGKYWMYDWGKGTLVTVSS
VL: QSVLTQPPSVSAAPGQKVTISCSGGGSSIGNSYVSWYQQLPGTAPKLLIYDNNKRPSGVPDRFSGSKSGTSATLAITGLQTGDEADYYCGTWDTSPVWEWPFGTGTKLTVL
For B1, the “IC50 (pM), IL-4 induced TF-1 cell proliferation” value [1] was 10.4 pM, the “IC50 (pM), IL-13 induced TF-1 cell proliferation” value [1] was 22.1 pM and the Kd [2] was 0.255 nM. The koff [2] was 0.000162 s⁻¹, the kon [2] was 640000 M⁻¹ s⁻¹ and the Kd [3] was 2.97 nM. For the same binder, the koff [3] was 0.000688 s⁻¹, the kon [3] was 243000 M⁻¹ s⁻¹ and the Kd [4] was 0.25 nM and 0.203 nM. The Kd [5] was 2.59 nM and 2.36 nM and 3.96 nM and the Kd [6] was 0.313 nM.

B2: Antibody 24 (PGL) IgG (antibody, V domains shown)
VH: QVQLVQSGAEVKKPGASVKVSCKASGYAFTSYYMHWVRQAPGQGLEWMGIINPRGGSTSYAQKFQGRVTMTRDTSTSTVYMELSSLRSEDTAVYYCARGKYWMYDWGKGTLVTVSS
VL: QSVLTQPPSVSAAPGQKVTISCSGGSSNIGNSYVSWYQQLPGTAPKLLIYDNNKRPSGIPDRFSGSKSGTSATLGITGLQTGDEADYFCGTWDTSTVWEWPFGTGTKLTVL
B2 was tested, and the “IC50 (pM), IL-4 induced TF-1 cell proliferation” value [7] was 15.3 pM and the “IC50 (pM), IL-13 induced TF-1 cell proliferation” value [7] was 55 pM.

Work on B3 yielded an IC50 [8] of 0.673 nM, an IC50 [9] of 0.673 nM and an IC50 [10] of 0.673 nM.
